Results reported in article PMC8615638, “Tumor Marker B7-H6 Bound to the Coiled Coil Peptide-Polymer Conjugate Enables Targeted Therapy by Activating Human Natural Killer Cells” (Biomedicines, 2021).
Substitutions are numbered along the chain they refer to. Names and notes keep the numbering of the source. Values joined by “and” are separate entries in the source; they are usually repeats but may differ in a detail not shown here. Equal values may be shown once. Where no end group is shown, it is not given here.

T1: high-affinity coiled coil B7-H6 (haB7-H6CC; S60Y, F82W, L129Y) (UniProt Q68D85 25-244, C212S | S60Y | F82W | L129Y)
T1 construct: additional N-terminal residues from the vector, as in B7-H6CC; GT and the (VAALKEK)4 coiled coil motif, as in B7-H6CC; C-terminus -GT(VAALKEK)4H8G; source: HEK293T (suspension-adapted), transient transfection, secreted, purified (IMAC, SEC); not shown: His8 (H8G), C-terminal, kept
T1 sequence: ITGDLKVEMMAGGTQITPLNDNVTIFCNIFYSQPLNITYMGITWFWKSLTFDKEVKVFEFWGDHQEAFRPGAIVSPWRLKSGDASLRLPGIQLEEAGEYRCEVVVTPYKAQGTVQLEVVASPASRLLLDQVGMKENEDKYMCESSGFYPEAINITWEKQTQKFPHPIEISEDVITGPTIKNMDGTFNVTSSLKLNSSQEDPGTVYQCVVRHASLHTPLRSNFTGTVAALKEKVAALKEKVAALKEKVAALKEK

T2: high-affinity B7-H6 (haB7-H6; S60Y, F82W, L129Y) (UniProt Q68D85 25-245, C212S | S60Y | F82W | L129Y)
T2 construct: same doubt on the C-terminal limit (L245 or T244); also called untagged haB7-H6; source: HEK293T (suspension-adapted), transient transfection, secreted, purified (IMAC, SEC)
T2 sequence (looked up): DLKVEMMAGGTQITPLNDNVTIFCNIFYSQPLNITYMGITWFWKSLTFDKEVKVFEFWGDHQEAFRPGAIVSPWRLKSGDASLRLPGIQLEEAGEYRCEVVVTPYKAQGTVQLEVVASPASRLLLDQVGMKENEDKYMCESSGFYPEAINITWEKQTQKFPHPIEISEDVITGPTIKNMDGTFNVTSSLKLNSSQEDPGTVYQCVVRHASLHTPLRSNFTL

T3: wild-type B7-H6 (extracellular domain of B7-H6 without the coiled coil tag, C212S) (UniProt Q68D85 25-245, C212S)
T3 construct: B7-H6, extracellular domain, residues D25-L245 with stabilizing mutation C212S; cloned as described previously [37]; also called non-modified B7-H6; soluble B7-H6 construct; source: HEK293T (suspension-adapted), transient transfection, secreted, purified (IMAC, SEC)
T3 sequence (looked up): T2 sequence (looked up) with Y36S, W58F, Y105L

B1: NKp30 ligand-binding domain (residues L19-E130, receptor ectodomain without stalk region) (receptor, UniProt O14931 19-130, looked up)
chain: LWVSQPPEIRTLEGSSAFLPCSFNASQGRLAIGSVTWFRDEVVPGKEVRNGTPEFRGRLAPLASSRFLHDHQAELHIRDVRGHDASIYVCRVEVLGLGVGTGNGTRLVVEKE
notes: cloned as described previously [37]; source: HEK293T (suspension-adapted), transient transfection, secreted, purified (IMAC, SEC)
B2: coiled coil B7-H6 (B7-H6CC) (ligand)
chain: T1 sequence with Y39S, W61F, Y108L
notes: additional N-terminal residues from the vector; B7-H6, extracellular domain, residues D25-T244 with stabilizing mutation C212S; GT and the (VAALKEK)4 coiled coil motif (peptide K), written out from -GT(VAALKEK)4H8G; C-terminus is -GT(VAALKEK)4H8G: the His8 is followed by a final G. In the flow cytometry the protein was labelled with AlexaFluor647 by NHS chemistry; Six N-glycosylation sites; also …
B3: PolCC+: HPMA copolymer of increased length conjugated with (VAALEKE)4 coiled coil peptides (other)
peptide: VAALEKEVAALEKEVAALEKEVAALEKE
modifications: also: attached to HPMA copolymer via copper-free click chemistry, site not given here
notes: (VAALEKE)4 coiled coil peptide, written out from the printed repeat; 130 kDa conjugate with approximately ten coiled coil peptides on each polymer chain (26% w/w); the polymer also carries biotin; Synthesis details are in File S1; source: synthetic peptide attached to HPMA copolymer (RAFT polymerization, copper-free click chemistry); purified by SEC; copies: 10
B4: PolCC: pHPMA copolymer conjugated with (VAALEKE)4 coiled coil peptides (other)
peptide: VAALEKEVAALEKEVAALEKEVAALEKE
modifications: also: attached to pHPMA copolymer via azide-alkyne cycloaddition, site not given here
notes: (VAALEKE)4 coiled coil peptide, written out from the printed repeat; 56 kDa conjugate with approximately eight coiled coil peptides on each polymer chain (40% w/w); the polymer also carries biotin; The polymer itself is no protein; also called coiled coil peptide-polymer conjugate; pHPMA-(VAALEKE)4; source: synthetic peptide attached to HPMA copolymer by click chemistry, as described previously …

Tests used:
NKp30 (Homo sapiens) = NKp30 (Homo sapiens) (UniProt O14931); experiment: BLI; details: cited from earlier work
[1] = target: B2; experiment: AUC; sedimentation velocity, B7-H6CC titrated with NKp30; 20 °C, 48,000 rpm, 280 nm, SEC buffer; sw isotherm fitted with A + B <=> AB; details: both partners purified
[2] = target: B2; experiment: ITC; NKp30 (124-182 µM) injected into a cell with the B7-H6 variant (15.6-25.0 µM); 25 °C; 10 mM HEPES, 150 mM NaCl, 10 mM NaN3, pH 7.5; fitted as A + B <=> AB, N = 1 - incompetent fraction of B7-H6; details: both partners purified
[3] = target: T1, high-affinity coiled coil B7-H6 …; experiment: as above; details: both partners purified
[4] = target: T2, high-affinity B7-H6 (haB7-H6; S60Y, …); experiment: as above; details: both partners purified
[5] = target: T3, wild-type B7-H6 (extracellular domain …); experiment: as above; details: both partners purified
[6] = target: the molecule itself; experiment: AUC; sedimentation velocity of B7-H6CC alone; 20 °C, 48,000 rpm, absorbance 280 nm, SEC buffer; monomer-dimer equilibrium
[7] = target: B2; experiment: AUC; sedimentation velocity, PolCC+ titrated with B7-H6CC; 20 °C, 42,000 rpm, 280 nm, SEC buffer; details: both partners purified
[8] = target: B2; experiment: flow cytometry on cells; PolCC mixed with AlexaFluor647-labelled B7-H6CC and scFvCC (AlexaFluor488-labelled or not); complexes carried to CAIX-expressing cells by scFvCC and B7-H6CC detected on the cells; 45 min on ice, 1 µM polymer; details: both partners purified

B7-H6 IgV domain (from UniProt Q68D85)
Kd (NKp30 (Homo sapiens)): 409 nM

B1
Kd [1]: 895 nM | stoichiometry N [1]: 0.78 and 1 | Kd [2]: 787 nM | dH [2]: -11.2 kcal/mol | stoichiometry N [2]: 0.74 | Kd [3]: 259 nM | dH [3]: -11.8 kcal/mol | stoichiometry N [3]: 0.65 | Kd [4]: 115 nM | dH [4]: -12.7 kcal/mol | stoichiometry N [4]: 0.91 | Kd [5]: 668 nM | dH [5]: -11.5 kcal/mol | stoichiometry N [5]: 0.88

B2
stoichiometry N [6]: 2

B3
binding result [7]: binds

B4
binding result [8]: binds
